Assay results reported in IntAct's records for PubMed 28062662.

B1: Glutaryl-CoA dehydrogenase, mitochondrial (Homo sapiens), Q92947 (parent)
chain: MALRGVSVRLLSRGPGLHVLRTWVSSAAQTEKGGRTQSQLAKSSRPEFDWQDPLVLEEQLTTDEILIRDTFRTYCQERLMPRILLANRNEVFHREIISEMGELGVLGPTIKGYGCAGVSSVAYGLLARELERVDSGYRSAMSVQSSLVMHPIYAYGSEEQRQKYLPQLAKGELLGCFGLTEPNSGSDPSSMETRAHYNSSNKSYTLNGTKTWITNSPMADLFVVWARCEDGCIRGFLLEKGMRGLSAPRIQGKFSLRASATGMIIMDGVEVPEENVLPGASSLGGPFGCLNNARYGIAWGVLGASEFCLHTARQYALDRMQFGVPLARNQLIQKKLADMLTEITLGLHACLQLGRLKDQDKAAPEMVSLLKRNNCGKALDIARQARDMLGGNGISDEYHVIRHAMNLEAVNTYEGTHDIHALILGRAITGIQAFTASK
partner: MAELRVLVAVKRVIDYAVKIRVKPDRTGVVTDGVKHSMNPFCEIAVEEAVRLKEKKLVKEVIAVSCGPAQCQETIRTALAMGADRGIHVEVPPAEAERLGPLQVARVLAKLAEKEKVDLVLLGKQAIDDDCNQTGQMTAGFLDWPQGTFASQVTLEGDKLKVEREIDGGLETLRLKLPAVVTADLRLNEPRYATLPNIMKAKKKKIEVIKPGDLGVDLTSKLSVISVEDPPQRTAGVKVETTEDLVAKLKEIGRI

Variants of: B1
Settings: with etfb_human ETFB

Effect of a mutation on the interaction, increasing interaction strength:
MALRGVSVRLLSRGPGLHVLRTWVSSAAQTEKGGRTQSQLAKSSRPEFDWQDPLVLEEQLTTDEILIRDTFRTYCQERLMPRILLANRNEVFHREIISEMGELGVLGPTIKGHGCAGVSSVAYGLLARELERVDSGYRSAMSVQSSLVMHPIYAYGSEEQRQKYLPQLAKGELLGCFGLTEPNSGSDPSSMETRAHYNSSNKSYTLNGTKTWITNSPMADLFVVWARCEDGCIRGFLLEKGMRGLSAPRIQGKFSLRASATGMIIMDGVEVPEENVLPGASSLGGPFGCLNNARYGIAWGVLGASEFCLHTARQYALDRMQFGVPLARNQLIQKKLADMLTEITLGLHACLQLGRLKDQDKAAPEMVSLLKRNNCGKALDIARQARDMLGGNGISDEYHVIRHAMNLEAVNTYEGTHDIHALILGRAITGIQAFTASK [Y113H]
MALRGVSVRLLSRGPGLHVLRTWVSSAAQTEKGGRTQSQLAKSSRPEFDWQDPLVLEEQLTTDEILIRDTFRTYCQERLMPRILLANRNEVFHLEIISEMGELGVLGPTIKGYGCAGVSSVAYGLLARELERVDSGYRSAMSVQSSLVMHPIYAYGSEEQRQKYLPQLAKGELLGCFGLTEPNSGSDPSSMETRAHYNSSNKSYTLNGTKTWITNSPMADLFVVWARCEDGCIRGFLLEKGMRGLSAPRIQGKFSLRASATGMIIMDGVEVPEENVLPGASSLGGPFGCLNNARYGIAWGVLGASEFCLHTARQYALDRMQFGVPLARNQLIQKKLADMLTEITLGLHACLQLGRLKDQDKAAPEMVSLLKRNNCGKALDIARQARDMLGGNGISDEYHVIRHAMNLEAVNTYEGTHDIHALILGRAITGIQAFTASK [R94L]
MALRGVSVRLLSRGPGLHVLRTWVSSAAQTEKGGRTQSQLAKSSRPEFDWQDPLVLEEQLTTDEILIRDTFRTYCQERLMPRILLANCNEVFHREIISEMGELGVLGPTIKGYGCAGVSSVAYGLLARELERVDSGYRSAMSVQSSLVMHPIYAYGSEEQRQKYLPQLAKGELLGCFGLTEPNSGSDPSSMETRAHYNSSNKSYTLNGTKTWITNSPMADLFVVWARCEDGCIRGFLLEKGMRGLSAPRIQGKFSLRASATGMIIMDGVEVPEENVLPGASSLGGPFGCLNNARYGIAWGVLGASEFCLHTARQYALDRMQFGVPLARNQLIQKKLADMLTEITLGLHACLQLGRLKDQDKAAPEMVSLLKRNNCGKALDIARQARDMLGGNGISDEYHVIRHAMNLEAVNTYEGTHDIHALILGRAITGIQAFTASK [R88C]
MALRGVSVRLLSRGPGLHVLRTWVSSAAQTEKGGRTQSQLAKSSRPEFDWQDPLVLEEQLTTDEILIRDTFRTYCQERLMPRILLANRNEVFHREIISEMGELGVLGPTIKGYGYAGVSSVAYGLLARELERVDSGYRSAMSVQSSLVMHPIYAYGSEEQRQKYLPQLAKGELLGCFGLTEPNSGSDPSSMETRAHYNSSNKSYTLNGTKTWITNSPMADLFVVWARCEDGCIRGFLLEKGMRGLSAPRIQGKFSLRASATGMIIMDGVEVPEENVLPGASSLGGPFGCLNNARYGIAWGVLGASEFCLHTARQYALDRMQFGVPLARNQLIQKKLADMLTEITLGLHACLQLGRLKDQDKAAPEMVSLLKRNNCGKALDIARQARDMLGGNGISDEYHVIRHAMNLEAVNTYEGTHDIHALILGRAITGIQAFTASK [C115Y]
MALRGVSVRLLSRGPGLHVLRTWVSSAAQTEKGGRTQSQLAKSSRPEFDWQDPLVLEEQLTTDEILIRDTFRTYCQERLMPRILLANRNKVFHREIISEMGELGVLGPTIKGYGCAGVSSVAYGLLARELERVDSGYRSAMSVQSSLVMHPIYAYGSEEQRQKYLPQLAKGELLGCFGLTEPNSGSDPSSMETRAHYNSSNKSYTLNGTKTWITNSPMADLFVVWARCEDGCIRGFLLEKGMRGLSAPRIQGKFSLRASATGMIIMDGVEVPEENVLPGASSLGGPFGCLNNARYGIAWGVLGASEFCLHTARQYALDRMQFGVPLARNQLIQKKLADMLTEITLGLHACLQLGRLKDQDKAAPEMVSLLKRNNCGKALDIARQARDMLGGNGISDEYHVIRHAMNLEAVNTYEGTHDIHALILGRAITGIQAFTASK [E90K]
MALRGVSVRLLSRGPGLHVLRTWVSSAAQTEKGGRTQSQLAKSSRPEFDCQDPLVLEEQLTTDEILIRDTFRTYCQERLMPRILLANRNEVFHREIISEMGELGVLGPTIKGYGCAGVSSVAYGLLARELERVDSGYRSAMSVQSSLVMHPIYAYGSEEQRQKYLPQLAKGELLGCFGLTEPNSGSDPSSMETRAHYNSSNKSYTLNGTKTWITNSPMADLFVVWARCEDGCIRGFLLEKGMRGLSAPRIQGKFSLRASATGMIIMDGVEVPEENVLPGASSLGGPFGCLNNARYGIAWGVLGASEFCLHTARQYALDRMQFGVPLARNQLIQKKLADMLTEITLGLHACLQLGRLKDQDKAAPEMVSLLKRNNCGKALDIARQARDMLGGNGISDEYHVIRHAMNLEAVNTYEGTHDIHALILGRAITGIQAFTASK [W50C]
MALRGVSVRLLSRGPGLHVLRTWVSSAAQTEKGGRTQSQLAKSSRPEFDWQDPLVLEEQLTTDEILIRDTFRTYCQERLMPRILLANRNEVFHREIISEMRELGVLGPTIKGYGCAGVSSVAYGLLARELERVDSGYRSAMSVQSSLVMHPIYAYGSEEQRQKYLPQLAKGELLGCFGLTEPNSGSDPSSMETRAHYNSSNKSYTLNGTKTWITNSPMADLFVVWARCEDGCIRGFLLEKGMRGLSAPRIQGKFSLRASATGMIIMDGVEVPEENVLPGASSLGGPFGCLNNARYGIAWGVLGASEFCLHTARQYALDRMQFGVPLARNQLIQKKLADMLTEITLGLHACLQLGRLKDQDKAAPEMVSLLKRNNCGKALDIARQARDMLGGNGISDEYHVIRHAMNLEAVNTYEGTHDIHALILGRAITGIQAFTASK [G101R]
